Results taken from patent CN116178530A (SHANGHAI JUNSHI BIOSCIENCES CO LTD; JUNMENG BIOSCIENCES CO …, dated 2023).

What was measured:
[1] = molecular target: Delta突变株RBD蛋白(货号SPD-C82Ed，ACRO Biosystems) (SARS-CoV-2, UniProt P0DTC2 319-537)
[2] = molecular target: Kappa突变株RBD蛋白(货号SPD-C82Ec，ACRO Biosystems) (SARS-CoV-2, UniProt P0DTC2 319-537)
[3] = molecular target: Gamma突变株RBD蛋白(货号SPD-C82E7，ACRO Biosystems) (SARS-CoV-2, UniProt P0DTC2 319-537)
[4] = molecular target: Alpha突变株RBD蛋白(货号SPD-C82E6，ACRO Biosystems) (SARS-CoV-2, UniProt P0DTC2 319-537)
[5] = molecular target: Beta突变株RBD蛋白(货号SPD-C82E5，ACRO Biosystems) (SARS-CoV-2, UniProt P0DTC2 319-537)
[6] = molecular target: Epsilon突变株RBD蛋白(货号SPD-C82E3，ACRO Biosystems) (SARS-CoV-2, UniProt P0DTC2 319-537)
[7] = molecular target: SARS-CoV-2的Delta突变株(B.1.617.2)假病毒的刺突蛋白 (SARS-CoV-2, UniProt P0DTC2 14-1273); experiment: cell-based or functional assay
[8] = molecular target: SARS-CoV-2的Kappa突变株(B.1.617.1)假病毒的刺突蛋白 (SARS-CoV-2, UniProt P0DTC2 14-1273); experiment: cell-based or functional assay
[9] = molecular target: SARS-CoV-2的Beta突变株(B.1.351)假病毒的刺突蛋白 (SARS-CoV-2, UniProt P0DTC2 14-1273); experiment: cell-based or functional assay
[10] = molecular target: SARS-CoV-2的Gamma突变株(P.1)假病毒的刺突蛋白 (SARS-CoV-2, UniProt P0DTC2 14-1273); experiment: cell-based or functional assay
[11] = molecular target: SARS-CoV-2的Alpha突变株(B.1.1.7)假病毒的刺突蛋白 (SARS-CoV-2, UniProt P0DTC2 14-1273); experiment: cell-based or functional assay

B1: JS5-10 (antibody, human IgG1, kappa, L234A L235A, V domains shown)
VH: EVQLLESGGGLVQPGGSLRLSCAASGFTFSSYAMSWVRQAPGKGLEWVSAIVGSGGSTYYADSVKGRFIISRDNSKNTLYLQMNSLRAEDTAVYYCAKSLIYGHYDILTGAYYFDYWGQGTLVTVSS
VL: DIQMTQSPSSVSASVGDRVTIPCRASQGIGNWLAWYQQKPGKAPKLLIYAASSLQSGVPSRFSGSGSGTDFTLTISSLQPEDFATYYCQQANSFPPFGQGTRLEIKR
Kd [1]: 0.73 nM
koff [1]: 0.000161 s⁻¹
kon [1]: 220000 M⁻¹ s⁻¹
Kd [2]: 0.875 nM
koff [2]: 0.000172 s⁻¹
kon [2]: 196000 M⁻¹ s⁻¹
Kd [3]: 1.12 nM
koff [3]: 0.000241 s⁻¹
kon [3]: 216000 M⁻¹ s⁻¹
Kd [4]: 1.3 nM
koff [4]: 0.000316 s⁻¹
kon [4]: 243000 M⁻¹ s⁻¹
Kd [5]: 0.88 nM
koff [5]: 0.000176 s⁻¹
kon [5]: 201000 M⁻¹ s⁻¹
Kd [6]: 1.17 nM
koff [6]: 0.000226 s⁻¹
kon [6]: 193000 M⁻¹ s⁻¹
假病毒中和 IC50 (荧光素酶报告基因, 293-ACE2细胞) [7]: 5.56 ng/mL
假病毒中和 IC50 (荧光素酶报告基因, 293-ACE2细胞) [8]: 5.4 ng/mL
假病毒中和 IC50 (荧光素酶报告基因, 293-ACE2细胞) [9]: 8.47 ng/mL
假病毒中和 IC50 (荧光素酶报告基因, 293-ACE2细胞) [10]: 0.449 ng/mL
假病毒中和 IC50 (荧光素酶报告基因, 293-ACE2细胞) [11]: 1.18 ng/mL
